The text below walks through data of patent publication US10654917B2, “Antibody molecules and peptide delivery systems for use in alzheimer's disease and related disorders” (TECHNOPHAGE, INVESTIGAÇĀO E DESENVOLVIMENTO EM …, priority 2015, dated 2020).

The nature of series [1]: Features of peptides: isoelectric point, charge. The following applies: original peptide. It counts as physicochemical. From the text: Table 7 lists each peptide's name, isoelectric point (PI), charge (number of positive residues), calculated mass (in Da), and ion found; as well as the name, calculated mass, and found ion for the corresponding conjugate; and also retention times in HPLC and the partition coefficient (log Po/w). These values allowed the determination of the hydrophilic nature of peptides, where pepH1 and pepH4 were identified as the most hydrophilic peptides.

In series [2] the test system is in vitro model of the BBB (bEnd3 cells). As to the kind of experiment: Transmigration of radiolabelled peptides across in vitro BBB model. Format: in vitro ADME.
In series [3] the test system is bEnd3 cells. As to the kind of experiment: Uptake test: cellular interaction (acid wash) and internalization (lysate). Format: cell-based.
Series [4] in a line: Partition coefficient Kp by intrinsic trp fluorescence. Format: physicochemical. How it is done:
For the pepH3, the “partition coefficient” or “affinity constant” also was determined, since this peptide intrinsically presents a tryptophan and, thus, successful administrations of the lipid compositions allowed determination of pepH3's affinity constant.
PepH2 and pepH3 are the most hydrophobic peptides (Po/w). In addition, pepH2 interacts with various lipid compositions of membrane models, while pepH3 only interacts with membranes rich in PS (a negatively charged phospholipid).

The nature of series [5]: Biodistribution of technetium-labelled peptides. It counts as in vivo, CD1 mice. In short, it runs like this: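 CD1 mice received technetium-labelled peptide (8.5×10^−5 M final labelling concentration, in PBS) by tail-vein iv injection; in a repeat study dose was raised one hundred fold. Organs were dissected, washed, weighed and counted at 5 and 60 min, or 2 and 60 min in the repeat, as % injected activity or per gram tissue.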

The nature of series [6]: Stability in blood and urine after injection, HPLC. It counts as in vivo, mice. The following applies: 5 and 60 minutes following injection. How it is done: Finally, stability of the peptides was determined. Urine and blood were taken from the animals after death, filtered, and analyzed by RT-HPLC. HPLC analysis was conducted to assess the stability of pepH1 and pepH3 peptides in blood and urine, 5 and 60 minutes post-administration, compared to the respective original preparations.
FIGS. 28A-28D show the profile of pepH1 and pepH3 each in its original preparation, prior to injection into the animals, and then after 5 and 60 minutes following injection in the blood and urine.

In series [7] the target is T1, BAP42 (Homo sapiens, UniProt P05067).
T1 construct: “beta-amyloid peptide 42”, or “beta-amyloid peptide 1-42”
The series can be described thus: Thioflavin T assay of BAP42 aggregation inhibition. It counts as biochemical. Particulars: proportions 1:5 and 1:20 sdAb:BAP42. Here is the method:
Once purified and verified in recognizing BAP42 oligomers, anti-oligomer antibodies were purified were tested for their ability to inhibit aggregation of the peptide to fibrillar forms. This assay was performed using the thioflavin T (ThT), which, as discussed above, is a probe that recognizes rich “beta-sheet” secondary structures, the structure indeed characteristic of fibrillar BAP42. Accordingly, the greater aggregation inhibition by a candidate anti-oligomer sdAb, the less fibrils formed, and thus the smaller the signal emitted by ThT during the assay. Other selected anti-oligomer sdAbs show similar aggregation inhibition.
Anti-oligomers also were tested for their ability to inhibit aggregation of BAP42. This assay was performed using Thioflavin T (ThT), which, as described above, recognizes beta-sheet rich structures, characteristic of fibrillar form of BAP42, so that the ability of sdAbs to inhibit aggregation can be assessed. Specifically, the more aggregation is inhibited, the smaller the signal emitted by ThT. Two proportions were tested, namely, 1:5 (one molecule for sdAb for every 5 BAP42 molecules) and 1:20 (one molecule for sdAb for every 20 BAP42 molecules).

Several values for one entry are separate records, joined by “and”; a condition that tells them apart may be missing. Equal values may be shown once.

T1 sequence (P05067 672-713 limits assumed): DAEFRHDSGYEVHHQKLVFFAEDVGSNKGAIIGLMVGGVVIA

On to “AGILKRW (Dengue virus 2; /note=“#PepH3 (PEP+)”)”, for which the “Charge (number of positive residues)” value in series [1] is reported as 2. In addition, the “PI (isoelectric point)” value in series [1] amounted to 11. Moreover, the BBB transmigration in series [2] (99mTc, 0.25 hours) is on record as 2.70 ± 0.0%; in series [2] (99mTc, 5 hours), 9.16 ± 6.5%; in series [2] (99mTc, 5 hours, listed as pepH3), 20%; in series [2] (99mTc, 24 hours), 67.23 ± 1.2%; in series [2] (99mTc, 24 hours, listed as pepH3) it was “about 70%”; in series [2] (GaCl3, 0.25 hours) it was 1.87 ± 0.3%. In addition, the BBB transmigration amounted to 26.47 ± 0.4% in series [2] (GaCl3, 5 hours) and 72.63 ± 0.7% in series [2] (GaCl3, 24 hours). Besides, in series [2] (99mTc, 5 h, no cells), the “overpass in the control (no cells)” value turned out to be 50%. Also, in series [3] (99mTc), the “where the radiopeptide is found in the uptake test (media, acid wash, lysate)” value is “mainly remained in the incubation medium”. For the same molecule, the Cellular interaction was determined as 1.50 ± 0.1% in series [3] (99mTc, 0.25 hours); 1.15 ± 0.1% in series [3] (99mTc, 5 hours); 0.60 ± 0.1% in series [3] (99mTc, 24 hours); 0.26 ± 0.0% in series [3] (GaCl3, 0.25 hours); 0.73 ± 0.0% in series [3] (GaCl3, 5 hours); 0.60 ± 0.1% in series [3] (GaCl3, 24 hours). Moreover, the Internalization in series [3] (99mTc, 0.25 hours) was 0.15 ± 0.1%; in series [3] (99mTc, 5 hours), 0.15 ± 0.1%; in series [3] (99mTc, 24 hours), 0.35 ± 0.2%; in series [3] (GaCl3, 0.25 hours), 0.03 ± 0.0%; in series [3] (GaCl3, 5 hours), 0.12 ± 0.0%; in series [3] (GaCl3, 24 hours), 0.30 ± 0.1%. Moreover, in series [4], the “affinity constant for POPC:POPS (1:4) relative to other lipid compositions” value came out at 5 times. Also, the “Kp ± SD” value in series [4] (Lipidic membrane POPC:POPS (1:4)) was 1,558 and 1,558 ± 216; in series [4] (Lipidic membrane POPC:POPS (3:2)), 455 ± 46; in series [4] (Lipidic membrane POPC:POPS (4:1)), 324 and 342 ± 102. In addition, the “radioactivity in the brain” value in series [5] (140 μg (pepH1, pepH3) or 80 μg (pepH2), 2 min) is 0.31% and 0.37%. The same molecule displayed an excreted in series [5] (140 μg (pepH1, pepH3) or 80 μg (pepH2), after 60 min) of 36%. Also, the brain uptake result in series [5] (after 2 min) is “rapid brain uptake”. The brain washout entry in series [5] (mouse, in vivo) was “rapid brain washout”. Besides, the “stability in blood and urine” value in series [6] was “stable in the blood and urine”.

B1: FC5: sdAb from the literature binding BBB receptors; positive control for BBB transmigration, SEQ ID NO: 112 (protein, listed as Lama glama)
VHH: ASEVQLQASGGGLVQAGGSLRLSCAASGFKITHYTMGWFRQAPGKEREFVSRITWGGDNTFYSNSVKGRFTISRDNAKNTVYLQMNSLKPEDTADYYCAAGSTSTATPLRVDYWGKGTQVTVSSLE
modifications: /note=“#FC5”
In the case of B1, the “inhibition of BAP42 fibrillization (ThT signal)” value in series [7] is “do not inhibit fibrillization”.
